Values of other authors, collected in patent US20020001615A1, “Combined interferon alfa and lipsosmal-encapsulated all-trans retinoic acid, including preparation and use” (Aronex Pharmaceuticals, Inc., priority 2000, published 2002).
Where two headings read alike, the source gives them in different places.

What was measured:
[1] = after three months on therapy, concomitant IFN

CC1=C(/C=C/C(C)=C/C=C/C(C)=C/C(=O)O)C(C)(C)CCC1 [ATRA, all-trans retinoic acid]
peak levels of atra in the serum [1]: declined

Interferon alfa-2b
stable for (time) (at 30° C.): up to 14 days
stable for (time) (at 35° C.): up to 7 days
